Laboratory results as given in patent US12129308.

Biological target: Aggrecan
Test: competition ELISA (CAP) on Aggrecan; competitor not stated

B1: C010100626 (bispecific antibody, part only; not given: albumin binder and linker, not shown: small tags and cut ends)
chain, part: EVQLVESGGGLVQPGGSLRLSCAASGSTFIINVVRWYRRAPGKQRELVATISSGGNANYVDSVRGRFTISRDNSKNTVYLQMNSLRPEDTAVYYCNVPTTHYGGVYYGPYWGQGTLVTVSSEVQLVESGGGLVQPGGSLRLSCAASGSTFIINVVRWYRRAPGKQRELVATISSGGNANYVDSVRGRFTISRDNSKNTVYLQMNSLRPEDTAVYYCNVPTTHYGGVYYGPYWGQGTLVTVSS
  IC50: 0.87 nM
